Measured values as given in patent US20110275699A1, “Treatment For Obesity And Diabetes” (University of California, priority 2010, published 2011).

Target: FLAG-tagged USF-1 (wild type, overexpressed in cells) (UniProt P22415)
Assay: cell-based or functional assay

Sequence of UniProt P22415 (P22415 whole entry): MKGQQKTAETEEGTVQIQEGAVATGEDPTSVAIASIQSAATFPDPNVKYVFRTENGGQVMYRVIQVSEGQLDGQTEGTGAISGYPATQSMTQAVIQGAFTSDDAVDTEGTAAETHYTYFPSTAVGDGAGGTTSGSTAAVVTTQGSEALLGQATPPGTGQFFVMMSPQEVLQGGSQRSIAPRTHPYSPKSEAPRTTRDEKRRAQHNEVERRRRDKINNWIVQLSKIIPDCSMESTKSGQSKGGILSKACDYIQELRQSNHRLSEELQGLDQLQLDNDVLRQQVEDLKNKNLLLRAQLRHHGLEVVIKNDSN

Substance: P/CAF, overexpressed in cells (from UniProt Q92831 1-832) (enzyme)
- FAS promoter activity (-444 FAS-Luc reporter): 2 fold

Substance: HDAC9, overexpressed in cells (from UniProt Q9UKV0 1-1011) (enzyme)
- FAS promoter activity (-444 FAS-Luc reporter): 50 % decrease
